# T1: murine tissue factor (TF) on transfected HEK293F cells (murine, UniProt P20352 29-294)
# T1 construct: whole, on cells; also called murine TF; TFmm
# T1 sequence (looked up): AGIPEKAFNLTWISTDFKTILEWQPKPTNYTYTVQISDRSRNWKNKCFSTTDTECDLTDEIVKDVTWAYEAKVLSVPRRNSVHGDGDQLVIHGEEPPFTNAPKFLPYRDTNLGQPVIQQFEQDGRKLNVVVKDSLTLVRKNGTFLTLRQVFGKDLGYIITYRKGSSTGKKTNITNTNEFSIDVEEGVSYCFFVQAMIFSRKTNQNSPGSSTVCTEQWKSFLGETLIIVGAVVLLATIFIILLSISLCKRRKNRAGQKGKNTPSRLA
# B1: anti-TF HuMab 087-Lg6 (antibody, V domains shown)
# VH: EVQLVQSGAEVKKPGESLKISCKGSGYSFTSCWIGWVRQMPGKGLEWMGIIYPGDSDTRYSPSFQGQVTISADKSISTAYLQWSSLKASDTAMYYCARHKLGMDHDAFDIWGQGTMVTVSS
# VL: DIQMTQSPSSLSASVGDRVTITCRASQGISSWLAWYQQKPEKAPKSLIYAASSLQSGVPSRFSGSGSGTDFTLTISSLQPEDFATYYCQQYNSYPPTFGQGTTVEVK
# notes: Human monoclonal antibody from HuMab mice
# Assays:
# [1] = target: T2, human tissue factor (TF), membrane-bound on cells (human, UniProt P13726 33-295); experiment: FACS, MDA-MB-231 cells, 30 µg/mL
# T2 construct: whole, on cells; also called cellular TF
# Summary of the method: (§1)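 Binding curves came from non-linear sigmoidal variable-slope fits of flow cytometry signal. Serially diluted HuMab was applied for 30 minutes on ice in PBS buffer containing 0.1% BSA and 0.02% Na-azide, with PE anti-human IgGFc secondary added after washing, again 30 minutes on ice, dark.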
# [2] = target: T3, TFECDHis (extracellular domain of tissue factor, amino acid 1-251, with C-terminal His tag) (human, UniProt P13726 33-251); experiment: SPR BIAcore 3000, HuMab immobilized, TFECDHis analyte
# T3 construct: range 1-251; The stated range 1-251 starts at residue 1 of NP-001984; also called extracellular domain of TF
# Summary of the method: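 HuMab antibodies (500 RU) amine-coupled on a CM-5 chip; TFECDHis concentration series in HBS-EP run over them at 30 μl/min for 180 sec. Surface regenerated with glycine pH 2.0 or acetate pH 3.0; kinetics from double-referenced 1:1 Langmuir fitting.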
# [3] = target: T2, human tissue factor (TF), …; experiment: cell-based or functional assay
# [4] = target: T2, human tissue factor (TF), …; experiment: FACS, Bx-PC3 cells
# Summary of the method: as §1
# [5] = target: T3, TFECDHis (extracellular domain of …); experiment: ELISA, coated TFECDHis, mean of 3
# Summary of the method: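 Plates coated overnight at +4° C with 0.5 μg/mL TFECDHis in PBS pH 7.4, blocked with 2% chicken serum. Serially diluted HuMabs bound 1 h at RT with shaking, detected with HRP anti-human IgG. Binding curves fitted by sigmoidal dose-response with variable slope; anti-KLH HuMab served as negative control.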
# [6] = target: T2, human tissue factor (TF), …; experiment: FACS, MDA-MB-231 cells
# Summary of the method: as §1
# [7] = target: T3, TFECDHis (extracellular domain of …); experiment: SPR BIAcore 3000, HuMab immobilized, TFECDHis analyte; footnote: n.a. not assessable = >10^-3 sec^-1
# Method: Antibody binding to TF was analyzed by surface plasmon resonance in a BIAcore 3000 (GE Healthcare). TFECDHis was used for the analysis. HuMab antibodies (500 resonance units) were immobilized on the CM-5 sensor chip according to the procedure recommended by the manufacturer. Briefly, after surface activation by EDC and NHS HuMab antibody was injected over the activated CM-5 surface in 10 mM sodium-acetate, pH ranging from 4.0 to 5.5 at 5 μl/min. followed by 1 M Ethanolamine for deactivation. Concentration series of TFECDHis in HBS-EP buffer were injected over the immobilized antibodies at a flow rate of 30 μl/min for 180 sec. Regeneration of the HuMab surface was performed by injection of 10 mM Glycine-HCl pH 2.0 or 10 mM sodium acetate pH 3.0. Kinetic analysis was performed using double reference subtraction and model 1:1 (langmuir) binding analysis.
# [8] = target: T2, human tissue factor (TF), …; experiment: FACS, Bx-PC3 cells, 30 µg/mL
# Summary of the method: as §1
# [9] = target: T1, murine tissue factor (TF) on …; experiment: FACS on transfected HEK293F cells, 30 µg/mL antibody [panel I]
# [10] = target: T3, TFECDHis (extracellular domain of …); experiment: competition ELISA, inhibition of FVIIa (100 nM) binding to coated TFECDHis
# Method: ELISA plates were coated overnight with TFECDHis (0.5 μg/mL, 100 μL per well). Plates were emptied, blocked with PBS containing 2% (v/v) chicken serum (1 hour, RT), and emptied again. […] Plates were washed and incubated with swine-anti-rabbit IgG-HRP antibody (1:2,500; DAKO). After washing, the immune complexes were visualized using ABTS as a substrate.
binder,measurement,setting,value
B1,Max MFI,[1],1110
same,kon,[2],591000 M⁻¹ s⁻¹
same,max inhibition of FVIIa induced IL-8 release (MDA-MB-231),[3],4.3%
same,EC50,[4],7.19 nM
same,EC50,[5],0.09 nM
same,EC50,[6],8.28 nM
same,koff,[7],> 0.001 s⁻¹
same,Max MFI,[8],1030
same,binding result,[9],no binding (tested: 30 µg/mL)
same,max inhibition,[10],35%

# Source: US20110300156A1 (Genmab, published 2011)
